B1: Smpx pT40 (protein, UniProt Q925F0 1-85, looked up)
Small muscular protein: MSKQPISNVRSIQANINIPMGAFRPGAGQPPRRKESTPGTAEGAPATPEEKKPVPGMKKFPGPVVNLSEIQNVKSELKYVPKGEQ
modifications: phosphorylated at T40
B2: Stk10 pS13 (protein, UniProt E9PTG8 1-967, looked up)
Serine/threonine-protein …: MAFANFRRILRLSTFEKRKSREYEHVRRDLDPNDVWEILGELGDGAFGKVYKAKNKETGALAAAKVIETKSEEELEDYIVEIEILATCDHPYIVKLLGAYYYDGKLWIMIEFCPGGAVDAIMLELDRGLTEPQIQVVCRQMLEALNFLHGKRIIHRDLKAGNVLMTLEGDIRLADFGVSAKNLKTLQKRDSFIGTPYWMAPEVVLCETMKDAPYDYKADIWSLGITLIEMAQIEPPHHELNPMRVLLKIAKSDPPTLLTPSKWSTEFRDFLKIALDKNPETRPSAAQLLQHPFVSTVTSNKALRELVAEAKAEVMEEIEDGKEDGSEKDAVSAVPPPVNHTQDSSANGTQPSLNSDKLLQDSSTPLPPSQPQEPVNGPCNQPSGDGSPQNTSPADEVSKNDNGLKVPVPLRKSRPLSVDARIQVTEEKQITDQAENPSSAASKPPKVNQSRPNSSALETLGVETLANGGLELPGSVTPNHSKRASDCSNLSTSESMDYGTSLSADLSLNKETGSLSLKGSKLHNKTLKRTRRFVVDGVEVSITTSKIISEDEKKDEEMRFLRRQELRELRLLQKEEHRNQTQLSTKHELQLEQMHRRFEQEINAKKKFYDVELENLERQQKQQVEKMEQDHSVRRREEAKRIRLEQDRDYARFQEQLKQMKKEVKRSIEKALRKQRQESMRMGQDSHTQKKQRLDRDFVAKQKEDLELAMKKLTAENRREICDKERDCLNKKQELLRDREAALWEMEEHQLQERHQLVKQQLKDQYFLQRHDLLRKHEKEREQMQRYNQRMMEQLKVRQQQEKARLPKIQRSDGKTRMAMYKKSLHINGAGSASEQREKVKQFSQQEEKRQKAERLQQQQKHENQMRDMVAQCESNMNELQQLQNEKCHLLVEHETQKLKALDESHNQSLKEWRDKLRPRKKALEEDLNQKKREQEMFFRLSEEAETRPTTPNRASKFFPYSSGDAS
modifications: phosphorylated at S13
B3: Arhgap35 pS1150 (protein, UniProt Q91YM2 1-1499, looked up)
Rho GTPase-activating protein …: MMMARKQDVRIPTYNISVVGLSGTEKEKGQCGIGKSCLCNRFVRPSADEFHLDHTSVLSTSDFGGRVVNNDHFLYWGEVSRSLEDCVECKMHIVEQTEFIDDQTFQPHRSTALQPYIKRAAATKLASAEKLMYFCTDQLGLEQDFEQKQMPDGKLLVDGFLLGIDVSRGMNRNFDDQLKFVSNLYNQLAKTKKPIVVVLTKCDEGVERYIRDAHTFALSKKNLQVVETSARSNVNVDLAFSTLVQLIDKSRGKTKIIPYFEALKQQSQQIATAKDKYEWLVSRIVKNHNENWPSVSRKMQASPEYQDYVYLEGTQKAKKLFLQHIHRLKHEHIERRRKLYLAALPLAFEALIPNLDEVDHLSCIKAKKLLETKPEFLKWFVVLEETPWDATSHIDNMENERIPFDLMDTVPAEQLYETHLEKLRNERKRAEMRRAFKENLETSPFITPGKPWEEARSFIMNEDFYQWLEESVYMDIYGKHQKQIIDRAKEEFQELLLEYSELFYELELDAKPSKEKMGVIQDVLGEEQRFKALQKLQAERDALILKHIHFVYHPTKETCPSCPACVDAKIEHLISSRFIRPSDRNQKNSLSDLNIDRINLVILGKDGLARELANEIRALCTNDDKYVIDGKMYELSLRPIEGNVRLPVNSFQTPTFQPHGCLCLYNSKESLSYVVESIEKSRESTLGRRDNHLVHLPLTLILVNKRGDTSGETLHSLIQQGQQIASKLQCVFLDPASAGIGYGRNINEKQISQVLKGLLDSKRNLNLVSSTASIKDLADVDLRIVMCLMCGDPFSADDVLSPVLQSQTCKSSHCGSSNSVLLELPIGLHKKRIELSVLSYHSSFSIRKSRLVHGYIVFYSAKRKASLAMLRAFLCEVQDIIPIQLVALTDGAIDVLDNDLSREQLTEGEEIAQEIDGRFTSIPCSQPQHKLELFHPFFKDVVEKKNIIEATHMYDNVAEACSTTEEVFNSPRAGSPLCNSNLQDSEEDVEPPSYHLFREDATLPSLSKDHSKFSMELEGNDGLSFIMSNFESKLNNKVPPPVKPKPPVHFDITKDLSYLDQGHREGQRKSMSSSPWMPQDGFDPSDYAEPMDAVVKPRNEEENIYSVPHDSTQGKIITIRNINKAQSNGSGNGSDSEMDTSSLERGRKVSAVSKPVLYRTRCTRLGRFASYRTSFSVGSDDELGPIRKKEEDQASQGYKGDNAVIPYETDEDPRRRNILRSLRRNTKKPKPKPRPSITKATWESNYFGVPLTTVVTPEKPIPIFIERCIEYIEATGLSTEGIYRVSGNKSEMESLQRQFDQDHNLDLAEKDFTVNTVAGAMKSFFSELPDPLVPYSMQIDLVEAHKINDREQKLHALKEVLKKFPKENHEVFKYVISHLNKVSHNNKVNLMTSENLSICFWPTLMRPDFSSMDALTATRSYQTIIELFIQQCPFFFYNRPISEPPGAAPGSPSAMAPTVPFLTSTPATSQPSPPQSPPPTPQSPMQPLLSSQLQAEHTL
modifications: phosphorylated S1150
B4: Ppp1r2 pT21 (protein, UniProt P50411 2-205, looked up)
Protein phosphatase inhibitor …: AASTASHRPIKGILKNKTSTTSSVVASAEQPRRTVEEELSKKSQKWDEMNILATYHPADKDYGLMKIDEPDTPYHNMIGDDEDVCSDSEGNEVMTPEILAKKLAAAEGSEPKFRTREQESSGEEDNDLSPEEREKKRQFEMKRKLHYNEGLNIKLARQLISKDLHDDDEDEEMSETADADSMNIEESNQGSTAGDHLQHKSQSS
modifications: phosphorylated at T21
B5: Ptrf pS302 (protein, UniProt P85125 1-392, looked up)
Caveolae-associated protein 1: MEDVTLHIVERPYSGYPDASSEGPEPTPGEARATEEPSGTGSDELIKSDQVNGVLVLSLLDKIIGAVDQIQLTQAQLEERQAEMEGAVQSIQGELSKLGKAHATTSNTVSKLLEKVRKVSVNVKTVRGSLERQAGQIKKLEVNEAELLRRRNFKVMIYQDEVKLPAKLSVSKSLKESEALPEKEGDELGEGERPEEDAAAIELSSDEAVEVEEVIEESRAERIKRSGLRRVDDFKKAFSKEKMEKTKVRTRENLEKTRLKTKENLEKTRHTLEKRMNKLGTRLVPVERREKLKTSRDKLRKSFTPDHVVYARSKTAVYKVPPFTFHVKKIREGEVEVLKATEMVEVGPDDDEVGAERGAETDLLRGSSPDVHTLLEITEESDAVLVDKSDSD
modifications: phosphorylated at S302
B6: Ptrf pS169 (protein, UniProt P85125 1-392, looked up)
Caveolae-associated protein 1: B5 Caveolae-associated protein 1
modifications: phosphorylated at S169
B7: Ptrf pS171 (protein, UniProt P85125 1-392, looked up)
Caveolae-associated protein 1: B5 Caveolae-associated protein 1
modifications: phosphorylated at S171
B8: Ndrg2 pS332 (protein, UniProt Q8VBU2 2-371, looked up)
Protein NDRG2: AELQEVQITEEKPLLPGQTPEAAKEAELAARILLDQGQTHSVETPYGSVTFTVYGTPKPKRPAIFTYHDVGLNYKSCFQPLFQFGDMQEIIQNFVRVHVDAPGMEEGAPVFPLGYQYPSQDQLADMIPCILQYLNFSTIIGVGVGAGAYILSRYALNHPDTVEGLVLINIDPNAKGWMDWAAHKLTGLTSSIPEMILGHLFSQEELSGNSELIQKYRSLITHAPNLENIELYWNSYNNRRDLNFERGGEMTLKCPVMLVVGDQAPHEDAVVECNSKLDPTQTSFLKMADSGGQPQLTQPGKLTEAFKYFVQGMGYMASSCMTRLSRSRTASLTSAASIDGSRSRSRTLSQSSESGTLPSGPPGHTMEVSC
modifications: phosphorylated at S332
B9: Ppp1r12a pT697 (protein, UniProt Q10728 1-1032, looked up)
Protein phosphatase 1 …: MKMADAKQKRNEQLKRWIGSETDLEPPVVKRQKTKVKFDDGAVFLAACSSGDTDEVLKLLHRGADINYANVDGLTALHQACIDDNVDMVKFLVENGANINQPDNEGWIPLHAAASCGYLDIAEFLIGQGAHVGAVNSEGDTPLDIAEEEAMEELLQNEVNRQGVDIEAARKEEERIMLRDARQWLNSGHISDVRHAKSGGTALHVAAAKGYTEVLKLLIQAGYDVNIKDYDGWTPLHAAAHWGKEEACRILVDNLCDMETVNKVGQTAFDVADEDILGYLEELQKKQNLLHSEKRDKKSPLIESTANMENNQPQKTFKNKETLIIEPEKNASRIESLEQEKADEEEEGKKDESSCSSEEDEEDDSESEAETDKTKPMASVTNAHTASTQAAPAAVTTPTLSSNQGTPTSPVKKFPTSTTKISPKEEERKDESPASWRLGLRKTGSYGALAEITASKEAQKEKDTAGVIRSASSPRLSSSLDNKEKEKDNKGTRLAYVAPTIPRRLGSTSDIEEKENRESSNLRTSSSYTRRKWEDDLKKNSSINEGSTYHRSCSFGRRQDDLISCSVPSTTSTPTVTSAAGLQKSFLSSTSTTAKTPPGSSPAGTQSSTSNRLWAEDSTEKEKDSAPTAATILVAPTVVSAAASSTTALTTTTAGTLSSTSEVRERRRSYLTPVRDEESESQRKARSRQARQSRRSTQGVTLTDLQEAEKTIGRSRSTRTREQENEEKDKEEKEKQDKEKQEEKKESEVSREDEYKQKYSRTYDETYARYRPVSTSSSSTPSSSSLSTLGSSLYASSQLNRPNSLVGITSAYSRGLTKDNEREGEKKEEEKEGEDKSQPKSIRERRRPREKRRSTGVSFWTQDSDENEQERQSDTEDGSSKRDTQTDSVSRYDSSSTSSSDRYDSLLGRSASYSYLEERKPYGSRLEKDDSTDFKKLYEQILAENEKLKAQLHDTNMELTDLKLQLEKATQRQERFADRSLLEMEKRERRALERRISEMEEELKMLPDLKADNQRLKDENGALIRVISKLSK
modifications: phosphorylated at T697

Each molecule was assayed on PKGIα (analogue-sensitive C42S/M438G), cGMP-activated (assay: Chemical genetic phosphoproteomic screen, cGMP-activated PKGIα C42S/M438G versus unactivated control). Settings: Group 1 (cGMP-activated) vs Group 3 (control).
Assay type: biochemical, human PKGIα; substrates in rat heart homogenate
Procedure, shortened: (§1)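 Analogue-sensitive human PKGIα mutants (M438G, air-oxidized to disulfide dimer; C42S/M438G, cGMP-activated), expressed in 293-F cells, thiophosphorylate substrates in rat left-ventricle lysate (20 mg ml) using N6-alkylated ATPγS. Thiophosphopeptides are recovered by covalent capture and identified with sites by LC–MS/MS, each compared against an unactivated control.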

| Molecule | log2 fold changes |
| --- | --- |
| B1 | 0.3577 |
| B2 | 0.7023 |
| B3 | 0.1001 |

Same assay, conditions: control = PKGIα C42S/M438G

| Molecule | log2 fold change cGMP vs Control |
| --- | --- |
| B4 | 5.158 |
| B5 | 3.161 |
| B6 | 4.006 |
| B7 | 3.564 |
| B8 | 3.419 |
| B9 | 0.8734 |

The molecules below were run on PKGIα (analogue-sensitive M438G), disulfide-activated (assay: Chemical genetic phosphoproteomic screen, disulfide-activated PKGIα M438G versus unactivated control). Settings: Group 2 (disulfide-activated) vs Group 3 (control).
Assay type: biochemical, human PKGIα; substrates in rat heart homogenate
Procedure, shortened: as §1

| Molecule | log2 fold changes |
| --- | --- |
| B1 | 1.906 |
| B2 | 0.1825 |
| B3 | 0.2658 |

Same assay, conditions: control = PKGIα C42S/M438G

| Molecule | log2 fold change Disulfide vs Control |
| --- | --- |
| B4 | 1.627 |
| B5 | 1.32 |
| B6 | 2.165 |
| B7 | -0.2713 |
| B8 | 1.914 |
| B9 | 0.1684 |

Source: article PMC5095173, “Disulfide-activated protein kinase G Iα regulates cardiac diastolic relaxation and fine-tunes the Frank–Starling response” (Nature Communications, 2016)
